Test results taken from paper PMC4570195, “Self-sorting heterodimeric coiled coil peptides with defined and tuneable self-assembly properties” (Scientific Reports, 2015).
Cy5 = fluorescent dye, coupled as Cy5-NHS

T1: KV (N-terminal acetylation)
T1 construct: de novo designed 28-residue coiled coil peptide, four heptads (gabcdef); also called KV peptide; source: synthetic peptide (solid phase, Fmoc), purified by reverse phase HPLC
T1 peptide: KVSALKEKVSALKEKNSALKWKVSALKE

T2: EV-Cy5 (Cy5 at the N-terminus (Cy5-NHS used instead of acetic anhydride))
T2 construct: de novo designed 28-residue coiled coil peptide; also called EV modified at the N-terminus with Cy5; source: synthetic peptide (solid phase, Fmoc), purified by reverse phase HPLC
T2 peptide: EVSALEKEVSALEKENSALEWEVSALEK

B1: EI (peptide)
peptide: Ac-EIAALEKEIAALEKENAALEWEIAALEK-NH2
notes: de novo designed 28-residue coiled coil peptide, four heptads (gabcdef); also called EI peptide; source: synthetic peptide (solid phase, Fmoc), purified by reverse phase HPLC
B2: KI (peptide)
peptide: Ac-KIAALKEKIAALKEKNAALKWKIAALKE-NH2
notes: de novo designed 28-residue coiled coil peptide, four heptads (gabcdef); also called KI peptide; source: synthetic peptide (solid phase, Fmoc), purified by reverse phase HPLC
B3: EV (peptide)
peptide: Ac-EVSALEKEVSALEKENSALEWEVSALEK-NH2
notes: de novo designed 28-residue coiled coil peptide, four heptads (gabcdef); also called EV peptide; source: synthetic peptide (solid phase, Fmoc), purified by reverse phase HPLC

Legend:
EV-Cy5 [1] = assay: Fluorescence of EV-Cy5 upon addition of EI and KI
Excerpt: To further experimentally verify that the peptides undergo thermodynamic self-sorting we modified EV at the N-terminus with a fluorescent dye (Cy5). Although not considered very environmentally sensitive, cyanine dyes tethered to the terminus of single-stranded DNA display significant changes in fluorescence quantum yield, emission lifetime, and fluorescence anisotropy decay upon hybridization with a complementary DNA strand[34][35]. […] This change in binding partner was also supported by simulations (Fig. 6b). The smaller amount of monomeric EV-Cy5 seen in the experiment after addition of EI is presumably an effect of the kinetics involved in the exchange of partners in the heterodimer. The simulations were run until equilibrium whereas the experimental data was acquired after 30 minutes incubation and the exchange was likely not fully completed within this time frame.
Figure 6 (a) Fluorescence spectra and (b) change in normalized intensity at 667 nm for EV-Cy5 upon addition of EI and KI. Addition of the complimentary peptide KI, thus forming EVKI dimers, results in an increase in fluorescence intensity. Subsequent addition of EI reduces the fluorescence intensity due to formation of EIKI dimers, leaving free EV-Cy5. […]
Fmoc-protected amino acids were purchased from Iris Biotech GmbH. […] Peptide concentrations were determined by UV absorbance (ε280(Trp) = 5690 M^−1 cm^−1). […]

KI [2] = biological target: B2; assay: method of continuous variation by circular dichroism; molar ratio of each monomer varied, ellipticity at 222 nm measured; details: both partners purified
KV [3] = biological target: T1, KV; assay: as above; details: both partners purified
KI [4] = biological target: B2; assay: circular dichroism, thermal denaturation; thermal denaturation at different peptide monomer concentrations, Tm related to Kd; Kd at 20 °C; 10 mM phosphate buffer pH 7; details: both partners purified
KV [5] = biological target: T1, KV; assay: as above; details: both partners purified
KV [6] = biological target: T1, KV; assay: circular dichroism, thermal denaturation; Kd at 75 °C, as used for the self-sorting simulations; details: both partners purified
EV-Cy5 [7] = biological target: T2, EV-Cy5; assay: fluorescence emission intensity of a Cy5-labelled peptide; EV-Cy5 5 μM, KI 5 μM added, then EI 5 μM; 30 minutes incubation; intensity at 667 nm; details: both partners purified
KI [8] = biological target: B2; assay: circular dichroism, thermal denaturation; Kd at 75 °C, as used for the self-sorting simulations; details: both partners purified

Molecule	change in fluorescence emission intensity, EI added prior to KI (EV-Cy5 [1]; EI added to EV-Cy5 prior to KI, otherwise identical conditions)	change in fluorescence emission intensity (EV-Cy5 [1]; EV-Cy5 5 μM, KI 5 μM then EI 5 μM, 30 min incubation, 667 nm, PB pH 7)	stoichiometry N (KI [2])	stoichiometry N (KV [3])	Kd (KI [4]) [nM]	Kd (KV [5]) [nM]	Kd (KV [6]) [nM]	binding result (EV-Cy5 [7])	Kd (KI [8]) [nM]
EV-Cy5: EV modified at the N-terminus with a fluorescent dye (Cy5) (Cy5-EVSALEKEVSALEKENSALEWEVSALEK-NH2)	a slight decrease in fluorescence intensity	a drop in emission intensity, close to the original intensity of the monomeric EV-Cy5							
B1			1	1	< 0.1	72	> 200		
B2								binds	
B3			1	1	85	1400			> 200
